# Biological target: HLA-A*02:01 (Homo sapiens, UniProt P04439, D140Y/D185E/D98H/E176V/E277Q/G131W/G231S/I119V/I121R/I166T/I218V/L300P/L318F/N151K/N90K/P208A/P217A/Q86G/Q94H/R138H/R169H/T345S)
# Assay: MHC binding assay (UV-ligand exchange, anti-β2m ELISA, peptide exchange yield)
# Settings: binding to HLA-A*02:01
# In short: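 Peptide-MHC complexes formed by UV-ligand exchange, cleaving a UV-sensitive placeholder peptide in favour of the test peptide. Exchange yield measured by ELISA: monomers diluted 100-fold onto streptavidin-coated plates, 1 h 37 °C, detected with 2 ug/ml HRP anti-β2m and TMB, absorbance at 450 nm.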
row,"Peptide exchange (MHC class I binding score, peptide exchange yield)",Substance
1,“+++” (>50 = +++),280 (VLPDPEVLEAV; listed as Homo sapiens) [compound 280]
2,“+++” (>50 = +++),281 (ILRESTEEL; listed as Homo sapiens) [compound 281]
3,“+++” (>50 = +++),282 (LLADVVPTT; listed as Homo sapiens) [compound 282]
4,“+++” (>50 = +++),284 (ILLSQTTGV; listed as Homo sapiens) [compound 284]
5,“+++” (>50 = +++),285 (QLLHVGVTV; listed as Homo sapiens) [compound 285]
6,“+++” (>50 = +++),286 (YLFPGIPEL; listed as Homo sapiens) [compound 286]
7,“+++” (>50 = +++),287 (FLNEFFLNV; listed as Homo sapiens) [compound 287]
8,“+++” (>50 = +++),288 (NLINEINGV; listed as Homo sapiens) [compound 288]
9,“++++” (>75% = ++++),289 (VLLEIEDLQV; listed as Homo sapiens) [compound 289]
10,“+++” (>50 = +++),295 (VLDRESPNV; listed as Homo sapiens) [compound 295]

# The remaining lines, values behind:
row,Substance,"Peptide exchange (MHC class I binding score, peptide exchange yield)"
1,261 (YVLEFLEEI; listed as Homo sapiens) [compound 261],“++” (>20% = ++)
2,262 (LLWGDLIWL; listed as Homo sapiens) [compound 262],“+++” (>50 = +++)
3,263 (LLVSNLDFGV; listed as Homo sapiens) [compound 263],“+++” (>50 = +++)
4,264 (SLQEQLHSV; listed as Homo sapiens) [compound 264],“+++” (>50 = +++)
5,265 (LLFGGTKTV; listed as Homo sapiens) [compound 265],“++” (>20% = ++)
6,266 (KITDTLIHL; listed as Homo sapiens) [compound 266],“+++” (>50 = +++)
7,267 (ALQDFLLSV; listed as Homo sapiens) [compound 267],“+++” (>50 = +++)
8,269 (RVLEVGALQAV; listed as Homo sapiens) [compound 269],“++” (>20% = ++)
9,270 (LLLDEEGTFSL; listed as Homo sapiens) [compound 270],“++” (>20% = ++)
10,271 (LVYPLELYPA; listed as Homo sapiens) [compound 271],“+++” (>50 = +++)
11,272 (ALGNTVPAV; listed as Homo sapiens) [compound 272],“+++” (>50 = +++)
12,273 (NLFQSVREV; listed as Homo sapiens) [compound 273],“++” (>20% = ++)
13,274 (SLLFSLFEA; listed as Homo sapiens) [compound 274],“++” (>20% = ++)
14,275 (YLVYILNEL; listed as Homo sapiens) [compound 275],“++” (>20% = ++)
15,276 (ALFTFSPLTV; listed as Homo sapiens) [compound 276],“+++” (>50 = +++)
16,277 (LLPPLESLATV; listed as Homo sapiens) [compound 277],“++” (>20% = ++)
17,278 (QLLDVVLTI; listed as Homo sapiens) [compound 278],“++” (>20% = ++)
18,279 (ALWGGTQPLL; listed as Homo sapiens) [compound 279],“++” (>20% = ++)

# Source: patent US10239925B2, “Peptides and combination of peptides for use in immunotherapy against ovarian cancer and other cancers” (IMMATICS BIOTECHNOLOGIES GMBH, priority 2015, dated 2019)
